One assay addresses T1, human NUP93^SOL (human, UniProt Q8N1F7 174-819).
T1 sequence: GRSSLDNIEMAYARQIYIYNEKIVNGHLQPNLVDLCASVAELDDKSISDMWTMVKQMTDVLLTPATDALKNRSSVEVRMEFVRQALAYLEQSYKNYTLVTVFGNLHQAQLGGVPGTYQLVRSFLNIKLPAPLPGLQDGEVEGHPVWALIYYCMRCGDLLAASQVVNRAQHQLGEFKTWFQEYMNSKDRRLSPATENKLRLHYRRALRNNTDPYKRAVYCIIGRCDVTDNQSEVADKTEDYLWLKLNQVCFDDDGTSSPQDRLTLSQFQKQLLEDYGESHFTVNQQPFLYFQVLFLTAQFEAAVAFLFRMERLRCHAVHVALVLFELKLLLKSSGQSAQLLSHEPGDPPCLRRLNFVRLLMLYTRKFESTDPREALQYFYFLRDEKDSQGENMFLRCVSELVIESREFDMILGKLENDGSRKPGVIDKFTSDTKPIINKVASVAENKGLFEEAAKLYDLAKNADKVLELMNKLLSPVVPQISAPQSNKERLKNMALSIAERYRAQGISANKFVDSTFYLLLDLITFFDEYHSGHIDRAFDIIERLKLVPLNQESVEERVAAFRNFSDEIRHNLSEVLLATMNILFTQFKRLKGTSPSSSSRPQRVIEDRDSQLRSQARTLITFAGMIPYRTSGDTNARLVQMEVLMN
Description: SEC.

Assay [1] addresses Chaetomium thermophilum Nup192, full-length (Chaetomium thermophilum, UniProt G0S4T0 1-1756). Description: ITC. On the technique in general: Isothermal titration calorimetry measures the heat released or taken up as one component is titrated into another.
Assay [2] deals with Chaetomium thermophilum Nup188, full-length (Chaetomium thermophilum, UniProt G0SFH5 1-1858). Put plainly: ITC.
Chaetomium thermophilum Nup188, full-length, sequence (G0SFH5 whole entry): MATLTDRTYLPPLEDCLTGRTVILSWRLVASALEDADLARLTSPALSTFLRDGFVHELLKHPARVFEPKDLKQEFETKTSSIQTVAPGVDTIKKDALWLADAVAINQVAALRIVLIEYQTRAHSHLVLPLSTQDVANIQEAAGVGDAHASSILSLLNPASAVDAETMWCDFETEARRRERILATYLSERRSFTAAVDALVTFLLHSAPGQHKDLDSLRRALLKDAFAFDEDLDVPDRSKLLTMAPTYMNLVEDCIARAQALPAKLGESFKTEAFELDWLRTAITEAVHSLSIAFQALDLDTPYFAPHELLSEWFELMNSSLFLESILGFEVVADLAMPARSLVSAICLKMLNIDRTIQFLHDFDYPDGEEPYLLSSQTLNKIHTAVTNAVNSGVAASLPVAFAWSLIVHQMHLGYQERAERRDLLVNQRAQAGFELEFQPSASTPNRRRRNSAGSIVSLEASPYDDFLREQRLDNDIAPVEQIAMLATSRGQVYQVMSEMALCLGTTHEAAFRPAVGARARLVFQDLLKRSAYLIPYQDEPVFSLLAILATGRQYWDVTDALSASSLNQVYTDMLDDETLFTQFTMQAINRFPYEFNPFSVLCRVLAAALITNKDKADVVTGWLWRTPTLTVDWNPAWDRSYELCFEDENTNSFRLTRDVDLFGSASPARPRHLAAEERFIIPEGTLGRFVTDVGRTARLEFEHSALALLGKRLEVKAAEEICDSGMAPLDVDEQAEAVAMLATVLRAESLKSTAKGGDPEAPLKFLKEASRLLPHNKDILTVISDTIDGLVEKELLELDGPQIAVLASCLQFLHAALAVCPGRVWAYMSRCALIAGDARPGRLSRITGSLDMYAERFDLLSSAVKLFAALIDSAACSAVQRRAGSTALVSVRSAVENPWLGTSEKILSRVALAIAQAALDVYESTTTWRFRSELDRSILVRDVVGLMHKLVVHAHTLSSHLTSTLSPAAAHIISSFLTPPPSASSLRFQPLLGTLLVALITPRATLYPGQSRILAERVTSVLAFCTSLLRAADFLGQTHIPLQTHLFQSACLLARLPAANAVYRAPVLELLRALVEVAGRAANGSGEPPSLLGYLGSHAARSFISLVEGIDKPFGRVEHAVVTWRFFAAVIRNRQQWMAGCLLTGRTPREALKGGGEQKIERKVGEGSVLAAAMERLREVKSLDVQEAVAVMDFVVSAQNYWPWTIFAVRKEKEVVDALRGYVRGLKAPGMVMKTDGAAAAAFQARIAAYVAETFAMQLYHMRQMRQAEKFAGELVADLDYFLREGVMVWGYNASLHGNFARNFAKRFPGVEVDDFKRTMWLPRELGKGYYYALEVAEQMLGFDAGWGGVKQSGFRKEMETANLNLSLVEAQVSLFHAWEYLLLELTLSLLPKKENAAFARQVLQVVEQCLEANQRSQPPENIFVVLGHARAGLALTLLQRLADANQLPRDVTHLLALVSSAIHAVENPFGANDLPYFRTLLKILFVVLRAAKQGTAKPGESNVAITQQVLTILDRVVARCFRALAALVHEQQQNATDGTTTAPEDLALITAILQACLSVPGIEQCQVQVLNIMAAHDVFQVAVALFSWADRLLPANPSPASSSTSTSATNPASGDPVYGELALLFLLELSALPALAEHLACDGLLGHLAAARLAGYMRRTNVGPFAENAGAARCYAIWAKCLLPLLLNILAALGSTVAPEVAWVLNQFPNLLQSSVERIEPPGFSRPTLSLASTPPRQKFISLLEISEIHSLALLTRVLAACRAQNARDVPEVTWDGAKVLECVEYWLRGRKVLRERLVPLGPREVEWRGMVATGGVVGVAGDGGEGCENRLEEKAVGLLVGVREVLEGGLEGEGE

The Kd is the equilibrium constant for the complex coming apart. Lower therefore signals higher affinity.

Chaetomium thermophilum Nup192, full-length, sequence (G0S4T0 whole entry): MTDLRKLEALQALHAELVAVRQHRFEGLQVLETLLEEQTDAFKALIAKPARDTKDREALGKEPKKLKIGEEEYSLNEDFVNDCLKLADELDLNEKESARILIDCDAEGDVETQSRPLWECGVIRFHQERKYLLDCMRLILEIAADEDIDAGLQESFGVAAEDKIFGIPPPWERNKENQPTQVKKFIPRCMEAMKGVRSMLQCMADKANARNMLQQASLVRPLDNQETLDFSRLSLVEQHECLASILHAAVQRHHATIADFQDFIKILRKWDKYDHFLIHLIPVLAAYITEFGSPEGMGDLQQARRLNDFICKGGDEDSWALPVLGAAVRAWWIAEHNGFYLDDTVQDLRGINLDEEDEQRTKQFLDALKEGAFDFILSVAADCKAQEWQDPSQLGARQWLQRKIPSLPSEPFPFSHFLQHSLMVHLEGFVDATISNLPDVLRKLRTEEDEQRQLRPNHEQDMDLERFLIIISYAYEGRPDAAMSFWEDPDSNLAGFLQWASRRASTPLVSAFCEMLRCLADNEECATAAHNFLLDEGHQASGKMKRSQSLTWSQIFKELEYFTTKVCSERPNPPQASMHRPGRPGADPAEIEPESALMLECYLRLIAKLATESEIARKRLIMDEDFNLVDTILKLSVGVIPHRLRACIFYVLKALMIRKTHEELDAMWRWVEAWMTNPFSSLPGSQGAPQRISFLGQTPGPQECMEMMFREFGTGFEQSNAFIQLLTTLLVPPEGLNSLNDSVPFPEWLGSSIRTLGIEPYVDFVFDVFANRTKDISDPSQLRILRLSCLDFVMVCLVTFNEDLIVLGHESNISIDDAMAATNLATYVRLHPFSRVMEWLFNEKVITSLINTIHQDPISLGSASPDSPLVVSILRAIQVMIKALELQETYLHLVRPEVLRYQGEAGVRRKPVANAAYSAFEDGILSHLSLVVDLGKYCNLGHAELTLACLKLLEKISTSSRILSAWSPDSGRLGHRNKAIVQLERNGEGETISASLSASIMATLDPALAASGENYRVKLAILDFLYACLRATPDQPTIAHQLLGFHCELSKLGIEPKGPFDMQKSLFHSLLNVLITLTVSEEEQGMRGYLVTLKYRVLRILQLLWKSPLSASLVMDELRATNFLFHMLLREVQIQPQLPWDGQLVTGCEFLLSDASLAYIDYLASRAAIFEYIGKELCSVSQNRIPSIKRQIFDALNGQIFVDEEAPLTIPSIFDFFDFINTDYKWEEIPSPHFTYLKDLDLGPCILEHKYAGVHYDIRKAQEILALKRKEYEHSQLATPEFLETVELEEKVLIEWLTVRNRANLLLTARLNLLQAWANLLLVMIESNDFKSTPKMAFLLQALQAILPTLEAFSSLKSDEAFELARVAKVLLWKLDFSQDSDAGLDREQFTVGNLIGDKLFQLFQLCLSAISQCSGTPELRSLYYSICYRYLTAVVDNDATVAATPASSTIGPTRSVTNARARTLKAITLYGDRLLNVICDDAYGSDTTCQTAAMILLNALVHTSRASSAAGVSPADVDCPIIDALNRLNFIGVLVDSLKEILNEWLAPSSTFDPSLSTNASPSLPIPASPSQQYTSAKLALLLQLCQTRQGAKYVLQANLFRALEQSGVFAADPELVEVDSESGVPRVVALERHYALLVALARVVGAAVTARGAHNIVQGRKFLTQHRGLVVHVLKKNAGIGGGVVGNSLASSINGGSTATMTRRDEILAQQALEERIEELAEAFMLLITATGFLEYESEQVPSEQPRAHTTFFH

B1: human NUP53^R2 (residues 84–150) (peptide, UniProt Q8NFH5 84-150, looked up)
chain: DKSGAPPVRSIYDDISSPGLGSTPLTSRRQPNISVMQSPLVGVTSTPGTGQSMFSPASIGQPRKTTL
For B1, the binding result with human NUP93^SOL was “binds”.

B2: Chaetomium thermophilum Nup145N (natural protein, UniProt G0SAK3 1-993, looked up)
chain: MSFGFGSGGFGQNNNSSTFGGFGSTPTTNTGFGSTGTTAFGSTSNTTGGGLFGGGGGGFGSGNTFGSGFGSKPAFGTPATTSSTSLFGSTTTTAGGTGFGSGGFGSTNTSSPFGGGGTSLFGNKTTTGFGSGTSTFGSNTGGGLFGGGSTTTGFGATNNPGIGTNVGDPPGTAVVPFSPTVEKEVNNPSQSNSYQNILFMDAYKKWSAEELRLADYNQGRKTAAPGGTGAFGSSGFGGFGTTSNTGGFGSNTGGGLFGNTQQNTGGFGTTNTTGSAFGSGGGLFGNKPATGGLFGTSSSQPAQSGGLFGSGTASTFGSSNTGTTSTFGSNNNTGGGLFGSNNTSSKPAFSFGTSNTSTPGFGTATTGSGFGTGTTTNTGGGLFGNTAQNTNTGGGLFGNQQQSGSAFGSGTGFGQQNQSTGTSLFGNTQQKPGGLFGSTTTNTSGGLFGSTNTGTSTFGQTPATQNTGGGLFGSKPAGTGGLFGSTATNQPASTGGLFGNLNTNAQTQQPATGGLFGNLGQNNQAKPSLFGTSTTTGGGLFGNTNAQQQTGSLFGTSTAQQQPQTGLGASLFGSSQQQQQQPQTFSTSITDISAYGATTLFSGLPDDKIQNPGPLATPLSGKAKVKSRSILPMYKLSPANASRLVTTPQKRAYGFSFSAYGSPTSPSSSASSTPGAFGQSILSSSINRGLNKSISASNLRRSLNVEDSILQPGAFSANSSMRLLGGPGSHKKLVINKDMRTDLFSPPNKDKQPQEDGTAARKTVTKRVSFDTSNVETPEKTIESSIPATDDSGYLKPDARSTANGTNGANGAKSSPVAAASPPEMEQVKGKELAVVHEEESPAPAQTDKPRGSQIEPGAYWMSPTADDIRAMNRMQRQRVVGFTVGRENVGSVQFKVPVDLSNINLDDLFGTIVILEPRSATVYPNAAKKPPMGKGLNVPALISLEHSWPRGGPTIKGRRLERHIERLKSIPDTTFESYDPETGVWAFSVEHF
B2 gave a Kd in assay [1] of around 825 nM.

B3: Nup145N^R1 (residues 616–683) (peptide, UniProt G0SAK3 616-683, looked up)
chain: ATPLSGKAKVKSRSILPMYKLSPANASRLVTTPQKRAYGFSFSAYGSPTSPSSSASSTPGAFGQSILS
Turning to B3, the Kd in assay [1] is around 1600 nM.

B4: Nic96^187–301 (domain or fragment, Chaetomium thermophilum, UniProt G0S024 187-301, looked up)
chain: EPGKAHYFLAASGVDPGAAVRDLGALGLQAKTERTAASVGPAAGPSGVSTTGFGTGLGEVDVDTYLSNLQTKTTLSMIADGLERSARDFDAFLEENVTLEWEAQRKRIYQHFGIK
In the case of B4, the Kd in assay [1] was around 75 nM; in assay [2], around 90 nM.

B5: Nic96^R2 (residues 240–301) (peptide, UniProt G0S024 240-301, looked up)
chain: GTGLGEVDVDTYLSNLQTKTTLSMIADGLERSARDFDAFLEENVTLEWEAQRKRIYQHFGIK
With B5, the dissociation constant Kd in assay [1] is around 75 nM; in assay [2], around 90 nM.

B6: SUMO-NUP53^N (residues 1–169) (domain or fragment, human, UniProt Q8NFH5 1-169, looked up)
chain: MAAFAVEPQGPALGSEPMMLGSPTSPKPGVNAQFLPGFLMGDLPAPVTPQPRSISGPSVGVMEMRSPLLAGGSPPQPVVPAHKDKSGAPPVRSIYDDISSPGLGSTPLTSRRQPNISVMQSPLVGVTSTPGTGQSMFSPASIGQPRKTTLSPAQLDPFYTQGDSLTSED
With B6, in the assay with human NUP93^SOL, the binding result is given as “binds”.

For the origin of these results see paper PMC9867570 (Science (New York, N.Y.), 2022).
